According to patent publication US6344436B1, “Lipophilic peptides for macromolecule delivery” (Baylor College of Medicine, priority 1996, dated 2002):
Ends that are not written are not given here. * marks the point of attachment. N,N‑distearylglycyl = CCCCCCCCCCCCCCCCCCN(CCCCCCCCCCCCCCCCCC)CC(=O)*

Assays:
LDL receptor = target: T1, LDL receptor (Homo sapiens, UniProt P01130); test: Cytosis and degradation of labeled LDL complexed with lipophilic peptide (FIG. 4); assay type: cell-based
T1 construct: endogenous in cells

[1] = Particle size of peptide-macromolecule complex after enmeshment and condensation; assay type: physicochemical; details: for particle size: peptide added to DNA in the absence of condensing peptide, CHAPS micelles diluted below cmc
Description: Subsequently, the nucleic acid becomes coated with lipophilic peptide and enmeshed; forming a condensed nucleic acid/lipophilic peptide complex while CHAPS detergent monomers can be dialyzed out of the resulting mixture (FIGURE EIGHT).
The degree of condensation of the nucleic acid given the treatment of example two is shown as FIGURE NINE. When distearyl-glycyl-apoE-3^129-169 was added to DNA previously condensed with K8, the particle size increased only ˜20%. The addition of JTS-1 increased the particle size another 40%. By contrast, addition of distearyl-glycyl-apoE-3^129-169 to DNA in the absence of condensing peptide gave a smaller particle, about 60 nm. Condensation and enmeshment with the distearyl-glycyl-apoE-3^129-169Q142, the mutant peptide, also gave a small, 60 nm monodisperse particle population. When distearyl-glycyl-apoE-3^129-169 in 10 mM CHAPS was diluted without DNA being present, the resulting vesicles were ˜450 nm in diameter. […] Free DNA in the control remained at the top of the gradient, while the enmeshed-condensed complex was found at the bottom of the centrifugation tube.

293 epithelial cells = test: Transfection of 293 epithelial cells grown in lovastatin to up-regulate LDL receptors; assay type: cell-based; details: for transfection ability of peptide-macromolecule complexes (FIG. 10): comparison between complexes
Description: The ability of the formulations of example three to transfect cells was tested in 293 epithelial cells grown in 1 μg mL^−1 lovastatin overnight to up-regulate LDL receptors. […] As expected from the reduced binding of the mutant peptide to the LDL receptor, expression by mutant peptide complexes was about 5% of that observed with the wild-type apoE peptide complexes. We conclude that the diacyl-peptide functions as a condensing agent, an encapsulation agent, a targeting agent and a lytic agent. Apart from the well defined receptor ligand domain, the sequence regions that contain the other functions remain to be elucidated.

T1 sequence (P01130 22-860, species assumed): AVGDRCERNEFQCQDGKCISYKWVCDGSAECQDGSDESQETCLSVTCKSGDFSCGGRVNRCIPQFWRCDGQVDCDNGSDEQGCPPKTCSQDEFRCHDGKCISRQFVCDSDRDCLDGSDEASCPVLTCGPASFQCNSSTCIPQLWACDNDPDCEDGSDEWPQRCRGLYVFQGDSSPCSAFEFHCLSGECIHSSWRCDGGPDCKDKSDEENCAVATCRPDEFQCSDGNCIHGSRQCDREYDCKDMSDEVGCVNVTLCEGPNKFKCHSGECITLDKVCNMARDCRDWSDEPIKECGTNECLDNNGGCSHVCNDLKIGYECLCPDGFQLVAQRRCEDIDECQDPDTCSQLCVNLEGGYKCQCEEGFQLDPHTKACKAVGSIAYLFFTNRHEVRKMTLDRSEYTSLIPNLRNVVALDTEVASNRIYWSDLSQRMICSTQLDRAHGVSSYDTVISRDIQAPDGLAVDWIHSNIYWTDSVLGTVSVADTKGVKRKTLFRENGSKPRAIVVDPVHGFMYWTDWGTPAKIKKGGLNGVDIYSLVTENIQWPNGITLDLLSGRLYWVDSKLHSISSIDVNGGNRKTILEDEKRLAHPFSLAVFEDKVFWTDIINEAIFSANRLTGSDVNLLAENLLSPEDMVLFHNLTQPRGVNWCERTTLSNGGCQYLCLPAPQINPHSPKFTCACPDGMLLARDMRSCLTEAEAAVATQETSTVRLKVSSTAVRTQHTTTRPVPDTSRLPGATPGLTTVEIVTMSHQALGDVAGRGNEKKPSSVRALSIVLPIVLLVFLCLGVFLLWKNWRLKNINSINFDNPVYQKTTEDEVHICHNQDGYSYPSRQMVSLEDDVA

Substance	cytosis and degradation of labeled LDL complexed with peptide (FIG. 4) (LDL receptor)	comparative size of peptide complexes ([1]; diameter after condensation of DNA (FIG. 9))	particle size [1]	increase in particle size ([1]; peptide added to DNA previously condensed with K8) [%]	diameter of resulting vesicles ([1]; peptide in 10 mM CHAPS diluted without DNA being present) [nm]	transfection ability of peptide-macromolecule complexes (FIG. 10) (293 epithelial cells)	further increase in particle size ([1]; JTS-1 added to K8-condensed DNA plus distearyl-glycyl-apoE-3^129-169) [%]	necessity of component for efficient gene transfer (293 epithelial cells; 293 epithelial cells (FIGURE TENc))	expression relative to wild-type apoE peptide complexes (293 epithelial cells; 293 epithelial cells, 1 μg mL^−1 lovastatin overnight)
distearyl-glycyl-apoE-3^129-169 ({N,N‑distearylglycyl}-STEELRVRLASHLRKLRKRLLRDADDLQKRLAVYQAGAREG)	cytosed and subsequently degraded	greatest reduction in diameter	about 60 nm	~20	~450	No significant transfection difference			
GLFEALLELLESLWELLLEA [JTS-1, reference compound]							40	Neither the galtoselated K8 or JTS-1 were necessary	
distearyl-glycyl-apoE-3^129-169(Q142)	significantly less cytosis and degradation		60 nm			significantly less transfection			about 5%
